Source: US20250076311A1 (Chugai, published 2025)
Residue numbers refer to the chain shown, from its start. In names and notes the source's numbering stands.

Tests used:
[1] = target: T1, human FcγRIIaR extracellular domain, His-tagged (human, UniProt P12318 34-217); assay: SPR (Biacore), 25C, antibody captured, FcgR as analyte
T1 construct: also called human FcgRIIaR; FcγRIIa type R
T1 chain: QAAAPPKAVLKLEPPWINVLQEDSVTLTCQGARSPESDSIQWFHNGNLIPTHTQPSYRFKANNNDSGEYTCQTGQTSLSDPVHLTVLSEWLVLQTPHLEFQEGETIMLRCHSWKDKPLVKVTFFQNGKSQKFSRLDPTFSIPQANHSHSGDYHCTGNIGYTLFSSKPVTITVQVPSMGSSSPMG
Description: (§1) The kinetic analysis of interactions between these antibodies and FcγR was carried out using BIACORE® T200 or BIACORE® 4000 (GE Healthcare). HBS-EP+ (GE Healthcare) was used as the running buffer, and the measurement temperature was set to 25° C. […] After the measurement, the antibody captured on the chip was washed off by allowing reaction with 10 mM glycine-HCl, pH1.5 and 25 mM NaOH so that the chip was regenerated and used repeatedly. The sensorgrams obtained as measurement results were analyzed by the 1:1 Langmuir binding model using the BIACORE® Evaluation Software to calculate the binding rate constant ka (L/mol/s) and dissociation rate constant kd (1/s), and the dissociation constant KD (mol/L) was calculated from these values. […] Regarding such interactions, KD values were calculated using the following 1:1 binding model described in BIACORE® T100 Software Handbook BR1006-48 Edition AE.

[2] = target: T2, cynomolgus monkey FcγRIIa2 extracellular domain, His-tagged (cynomolgus monkey); assay: as above
T2 construct: also called cyno FcgRIIa2
T2 chain: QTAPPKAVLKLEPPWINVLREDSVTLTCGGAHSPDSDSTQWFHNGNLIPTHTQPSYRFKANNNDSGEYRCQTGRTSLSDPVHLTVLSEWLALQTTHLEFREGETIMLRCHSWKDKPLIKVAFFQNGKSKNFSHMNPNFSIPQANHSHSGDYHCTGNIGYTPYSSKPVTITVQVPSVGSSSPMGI
Description: as §1

[3] = target: T3, cynomolgus monkey FcγRIIb extracellular domain, His-tagged (cynomolgus monkey); assay: as above
T3 construct: also called cyno FcgRIIb
T3 chain: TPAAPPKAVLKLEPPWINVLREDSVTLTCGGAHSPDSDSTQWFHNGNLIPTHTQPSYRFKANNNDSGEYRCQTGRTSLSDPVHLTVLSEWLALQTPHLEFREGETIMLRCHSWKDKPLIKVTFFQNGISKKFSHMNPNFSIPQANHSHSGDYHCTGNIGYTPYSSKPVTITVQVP
Description: as §1

[4] = target: T4, human FcγRIIIaV extracellular domain, His-tagged (human, UniProt P08637 17-208); assay: as above
T4 construct: also called human FcgRIIIaV
Description: as §1
T4 sequence (P08637 17-208 F176V): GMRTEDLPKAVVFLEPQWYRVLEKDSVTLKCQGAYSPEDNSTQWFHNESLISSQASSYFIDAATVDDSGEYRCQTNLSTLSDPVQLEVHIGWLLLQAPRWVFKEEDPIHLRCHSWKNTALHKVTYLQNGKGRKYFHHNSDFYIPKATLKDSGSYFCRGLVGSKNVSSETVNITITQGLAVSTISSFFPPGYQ

[5] = target: T5, human FcγRIIaH extracellular domain, His-tagged (human, UniProt P12318 34-217); assay: as above
T5 construct: also called human FcgRIIaH; FcγRIIa type H
T5 sequence: T1 chain with R134H
Description: as §1

[6] = target: T6, human FcγRIIb extracellular domain, His-tagged (human, UniProt P31994 43-217); assay: SPR (Biacore), 25C, KD of SG1 / KD of variant
T6 construct: also called human FcgRIIb
T6 sequence: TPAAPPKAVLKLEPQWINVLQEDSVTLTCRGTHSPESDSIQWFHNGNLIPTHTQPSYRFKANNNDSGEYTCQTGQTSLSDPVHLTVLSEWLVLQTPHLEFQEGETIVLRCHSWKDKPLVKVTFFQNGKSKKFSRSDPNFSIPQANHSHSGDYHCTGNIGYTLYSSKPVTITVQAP

[7] = target: T7, cynomolgus monkey FcγRIIIaS extracellular domain, His-tagged (cynomolgus monkey, UniProt Q8SPW2 21-206 at identity 1.00)); assay: SPR (Biacore), 25C, KD of SG1 / KD of variant
T7 construct: also called cyno FcgRIIIaS
T7 chain: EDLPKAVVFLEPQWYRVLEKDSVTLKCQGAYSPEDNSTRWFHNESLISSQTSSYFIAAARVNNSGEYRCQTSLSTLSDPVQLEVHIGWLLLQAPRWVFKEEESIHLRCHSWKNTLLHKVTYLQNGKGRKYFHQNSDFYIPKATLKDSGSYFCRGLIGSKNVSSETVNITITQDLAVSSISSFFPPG

[8] = target: T8, cynomolgus monkey FcγRIIa1 extracellular domain, His-tagged (cynomolgus monkey); assay: SPR (Biacore), 25C, KD of SG1 / KD of variant
T8 construct: also called cyno FcgRIIa1
T8 chain: T2 chain with T95P, A121T, K127I, S128A, N130K, N135D, Q142R

[9] = target: T1, human FcγRIIaR extracellular domain, …; assay: SPR (Biacore), 25C, KD of SG1 / KD of variant
[10] = target: T2, cynomolgus monkey FcγRIIa2 …; assay: SPR (Biacore), 25C, KD of SG1 / KD of variant
[11] = target: T3, cynomolgus monkey FcγRIIb extracellular …; assay: SPR (Biacore), 25C, KD of SG1 / KD of variant
[12] = target: T9, cynomolgus monkey FcγRIIa3 extracellular domain, His-tagged (cynomolgus monkey); assay: SPR (Biacore), 25C, KD of SG1 / KD of variant
T9 construct: also called cyno FcgRIIa3
T9 chain: T2 chain with K127I, N130K, H133P, Q142R

[13] = target: T4, human FcγRIIIaV extracellular domain, …; assay: SPR (Biacore), 25C, KD of SG1 / KD of variant
[14] = target: T5, human FcγRIIaH extracellular domain, …; assay: SPR (Biacore), 25C, KD of SG1 / KD of variant
[15] = target: T10, cynomolgus monkey FcγRIIa2 extracellular domain with C-terminal His-tag (cynomolgus monkey); assay: SPR (Biacore), KD of SG1 divided by KD of variant
T10 construct: also called cyno FcgRIIa2; cynoFcγRIIa2
T10 chain: T2 chain

[16] = target: T11, human FcγRIIb extracellular domain with C-terminal His-tag (human, UniProt P31994 43-217); assay: SPR (Biacore), antibody captured, FcgR as analyte
T11 construct: also called human FcgRIIb
T11 sequence: T6 sequence

[17] = target: T12, human FcγRIIaR extracellular domain, His-tagged (human, UniProt P12318 34-217); assay: SPR (BIACORE), antibody captured, FcγR analyte, 25 C; KD of SG1 divided by KD of variant
T12 construct: also called human FcγRIIa (type R); FcgRIIaR
T12 chain: T1 chain

[18] = target: T13, cynomolgus monkey FcγRIIIaS extracellular domain, His-tagged (cynomolgus monkey, UniProt Q8SPW2 21-206 at identity 1.00)); assay: as above
T13 construct: also called cyno FcγRIIIaS; cynoFcgRIIIaS
T13 chain: T7 chain

[19] = target: T14, human FcγRIIaH extracellular domain, His-tagged (human, UniProt P12318 34-217); assay: SPR (BIACORE), antibody captured on chip, FcγR as analyte, 25 C; KD of SG1 divided by KD of the variant
T14 construct: also called human FcγRIIa (type H); FcgRIIaH; not shown: His-tag added to the C-terminus
T14 sequence: T1 chain with R134H
Description: as §1

[20] = target: T15, human FcγRIIIaV extracellular domain, His-tagged (human, UniProt P08637 17-208); assay: as above
T15 construct: also called human FcγRIIIa (V158 allotype); FcgRIIIaV; not shown: His-tag added to the C-terminus
Description: as §1
T15 sequence (P08637 17-208 F176V): as the sequence (P08637 17-208 F176V) above

[21] = target: T11, human FcγRIIb extracellular domain with …; assay: SPR (Biacore), KD of SG1 divided by KD of variant
[22] = target: T16, human FcγRIIaR extracellular domain with C-terminal His-tag (human, UniProt P12318 34-217); assay: SPR (Biacore), antibody captured, FcgR as analyte
T16 construct: also called human FcgRIIaR; FcγRIIa (type R)
T16 chain: T1 chain

[23] = target: T17, cynomolgus monkey FcγRIIa3 extracellular domain with C-terminal His-tag (cynomolgus monkey); assay: SPR (Biacore), antibody captured, FcgR as analyte
T17 construct: also called cyno FcgRIIa3; cynoFcγRIIa3
T17 chain: T2 chain with K127I, N130K, H133P, Q142R

[24] = target: T18, cynomolgus monkey FcγRIIIaS extracellular domain with C-terminal His-tag (cynomolgus monkey, UniProt Q8SPW2 21-206 at identity 1.00)); assay: SPR (Biacore), antibody captured, FcgR as analyte
T18 construct: also called cyno FcgRIIIaS; cynoFcγRIIIaS
T18 chain: T7 chain

[25] = target: T19, cynomolgus monkey FcγRIIa1 extracellular domain with C-terminal His-tag (cynomolgus monkey); assay: SPR (Biacore), antibody captured, FcgR as analyte
T19 construct: also called cyno FcgRIIa1; cynoFcγRIIa1
T19 chain: T2 chain with T95P, A121T, K127I, S128A, N130K, N135D, Q142R

B1: MS1032LO06-MY009 (antibody, human IgG1, kappa)
heavy: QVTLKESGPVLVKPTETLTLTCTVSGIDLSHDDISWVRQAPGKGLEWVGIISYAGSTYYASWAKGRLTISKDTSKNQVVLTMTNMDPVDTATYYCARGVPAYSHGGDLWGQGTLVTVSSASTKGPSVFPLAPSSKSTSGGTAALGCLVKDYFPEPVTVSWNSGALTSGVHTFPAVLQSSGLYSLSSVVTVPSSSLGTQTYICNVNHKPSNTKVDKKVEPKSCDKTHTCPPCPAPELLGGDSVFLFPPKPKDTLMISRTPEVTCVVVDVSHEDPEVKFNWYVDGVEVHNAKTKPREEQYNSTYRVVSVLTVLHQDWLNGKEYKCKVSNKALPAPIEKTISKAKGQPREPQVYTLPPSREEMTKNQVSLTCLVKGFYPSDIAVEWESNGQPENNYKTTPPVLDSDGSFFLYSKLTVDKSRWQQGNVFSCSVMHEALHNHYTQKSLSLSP
light: DIVMTQSPATLSLSPGERATLSCTSSQSVYHANWLSWFQQKPGQPPKLLIYWASTLAYGVPSRFSGSGSGTDFTLTISSLQPEDAATYYCAGGYGGGRYAFGQGTKVEIKRTVAAPSVFIFPPSDEQLKSGTASVVCLLNNFYPREAKVQWKVDNALQSGNSQESVTEQDSKDSTYSLSSTLTLSKADYEKHKVYACEVTHQGLSSPVTKSFNRGEC
notes: SG1 with P238D (EU numbering); also called M103205H795-MY009/M103202L889-SK1
[1]
  Kd: 2000 nM
[2]
  Kd: 2000 nM
[3]
  Kd: 4300 nM
[4]
  Kd: 550000 nM
[5]
  Kd: 3500 nM
[6]
  KD fold (SG1 = 1): 3.3
[7]
  KD fold (SG1 = 1): 0.004
[8]
  KD fold (SG1 = 1): 0.2
[9]
  KD fold (SG1 = 1): 0.1
[10]
  KD fold (SG1 = 1): 0.2
[11]
  KD fold (SG1 = 1): 0.4
[12]
  KD fold (SG1 = 1): 0.5
[13]
  KD fold (SG1 = 1): 0.002
[14]
  KD fold (SG1 = 1): 0.01

B2: M103205H795-MY534 / M103202L889-SK1 (antibody, human IgG1, kappa, name in EU numbering)
heavy: QVTLKESGPVLVKPTETLTLTCTVSGIDLSHDDISWVRQAPGKGLEWVGIISYAGSTYYASWAKGRLTISKDTSKNQVVLTMTNMDPVDTATYYCARGVPAYSHGGDLWGQGTLVTVSSASTKGPSVFPLAPSSKSTSGGTAALGCLVKDYFPEPVTVSWNSGALTSGVHTFPAVLQSSGLYSLSSVVTVPSSSLGTQTYICNVNHKPSNTKVDKKVEPKSCDKTHTCPPCPAPELLTGPVVFLFPPKPKDTLMISRTPEVTCVVVDVSDEDPEVKFNWYVDGVEVHNAKTKPREELYNSTYRVVSVLTVLHQDWLNGKEYKCKVSNKALPKPIEKTISKAKGQPREPQVYTLPPSREEMTKNQVSLTCLVKGFYPSDIAVEWESNGQPENNYKTTPPVLDSDGSFFLYSKLTVDKSRWQQGNVFSCSVMHEALHNHYTQKSLSLSP
light: B1 light
[15]
  KD fold (SG1 = 1): 3.5 fold
[16]
  Kd: 1200 nM

B3: M103205H795-MY458/M103202L889-SK1 (antibody, human IgG1, kappa, name in EU numbering)
heavy: B2 heavy with P234Y, V241S, L297Q
light: B1 light
[17]
  KD fold (SG1 = 1): 4.3 fold
[18]
  KD fold (SG1 = 1): 0.2 fold

B4: M103205H795-MY321/M103202L889-SK1 (antibody, human IgG1, kappa, name in EU numbering)
heavy: B2 heavy with T238H, V241S, L297Q, P398M
light: B1 light
notes: Fc variant made by introducing substitutions into M103205H795-SG1; expressed with M103202L889-SK1 as light chain; Substitution positions are EU numbering
[19]
  KD fold for humanFcgRs (SG1 = 1): 9.7 fold
[20]
  KD fold for humanFcgRs (SG1 = 1): 0.24 fold

B5: M103205H795-MY339 / M103202L889-SK1 (antibody, human IgG1, kappa, name in EU numbering)
heavy: B2 heavy with T238L, V241S, L297Q, K328T, P398K
light: B1 light
[21]
  KD fold (SG1 = 1): 1.6 fold
[22]
  Kd: 630 nM
[23]
  Kd: 9800 nM

B6: M103205H795-MY526 / M103202L889-SK1 (antibody, human IgG1, kappa, name in EU numbering)
heavy: B2 heavy with A233T
light: B1 light
[24]
  Kd: 1600 nM
[25]
  Kd: 1300 nM
